The supplement of paper PMC7877785
± gives the uncertainty stated by the source.

Experiment: self-splicing fitness, log relative to wild type (ln ratio); higher = more splicing; Tetrahymena group I intron in knt gene, E. coli kanamycin selection, DiMSum; sequences stand for … in CUCUCU…GGAGGGAAAAGUUAUCAGGCAUGCACCUGGUAGCUAGUCUUUAAACCAAUAGAUUGCAUCGGUUUAAAAGGCAAGACCGUCAAAUUGCGGGAAAGGGGUCAACAGCCGUUCAGUACCAAGUCUCAGGGGAAACUUUGAGAUGGCCUUGCAAAGGGUAUGGUAAUAAGCUGACGGACAUGGUCCUAACCACGCAGCCAAGUCCUAAGUCAACAGAUCUUCUGUUGAUAUGGAUGCAGUUCACAGACUAAAUGUCGGUCGGGGAAGAUGUAUUCUUCUCAUAAGAUAUAGUCGGACCUCUCCUUAAUGGGAGCUAGCGGAUGAAGUGAUGCAACACUGGAGCCGCUGGGAACUAAUUUGUAUGCGAAAGUAUAUUGAUUAGUUUUGGAGUACUCGUGGUCG
Method in brief: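 Library with all eight P1ex-region intron nucleotides randomised, intron inside the knt kanamycin-resistance gene on pET-22b(+), in E. coli BL21(DE3). Cells grew overnight at 37°C or 30°C on LB agar with or without 25 μg/mL kanamycin (plus 100 μg/mL carbenicillin, 50 μM IPTG, 0.2% rhamnose), in six replicate transformations. Pooled colonies were amplicon-sequenced on Illumina HiSeq 2500. DiMSum fitness is the error-weighted combination of wild-type-normalised replicate fold changes, kanamycin versus none.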

GGACAGCAAUAUUACGCAUU
self-splicing fitness (ln) (30 °C): -0.834 ± 0.062
self-splicing fitness (ln) (37 °C): -0.622 ± 0.078

AAUCAGCAAUAUUACGCAGA
self-splicing fitness (ln) (30 °C): -1.04 ± 0.068
self-splicing fitness (ln) (37 °C): -0.32 ± 0.07

CUGAAGCAAUAUUACGCGCU
self-splicing fitness (ln) (30 °C): -3.35 ± 0.29

GGAUAGCAAUAUUACGUUGC
self-splicing fitness (ln) (30 °C): -4.63 ± 0.36
self-splicing fitness (ln) (37 °C): -2.2 ± 0.28

GAAAAGCAAUAUUACGCCGA
self-splicing fitness (ln) (30 °C): -1.01 ± 0.2
self-splicing fitness (ln) (37 °C): -0.824 ± 0.23

AUAUAGCAAUAUUACGGCAC
self-splicing fitness (ln) (30 °C): -2 ± 0.24
self-splicing fitness (ln) (37 °C): 0.951 ± 0.25

GUUAAGCAAUAUUACGCUGC
self-splicing fitness (ln) (30 °C): -3.43 ± 0.33
self-splicing fitness (ln) (37 °C): -1.49 ± 0.32

UCGCAGCAAUAUUACGAGGA
self-splicing fitness (ln) (30 °C): -2.88 ± 0.19
self-splicing fitness (ln) (37 °C): -0.7 ± 0.12

CAACAGCAAUAUUACGCUGA
self-splicing fitness (ln) (30 °C): -3.74 ± 0.2
self-splicing fitness (ln) (37 °C): -3.02 ± 0.2

CAGGAGCAAUAUUACGCUCU
self-splicing fitness (ln) (30 °C): -3.36 ± 0.26
self-splicing fitness (ln) (37 °C): -2.41 ± 0.26

GACCAGCAAUAUUACGGAGG
self-splicing fitness (ln) (30 °C): -2.04 ± 0.068
self-splicing fitness (ln) (37 °C): -0.681 ± 0.07

GGGGAGCAAUAUUACGUUGU
self-splicing fitness (ln) (37 °C): -1.82 ± 0.28

AUCUAGCAAUAUUACGUAUA
self-splicing fitness (ln) (30 °C): -2.84 ± 0.33
self-splicing fitness (ln) (37 °C): -1.91 ± 0.3

CCAGAGCAAUAUUACGAUGU
self-splicing fitness (ln) (30 °C): -3.69 ± 0.23
self-splicing fitness (ln) (37 °C): -1.83 ± 0.17

UGGGAGCAAUAUUACGAAGG
self-splicing fitness (ln) (37 °C): -1.1 ± 0.41

ACCAAGCAAUAUUACGUUUG
self-splicing fitness (ln) (30 °C): -4.33 ± 0.16
self-splicing fitness (ln) (37 °C): -2.43 ± 0.14

GGUGAGCAAUAUUACGGUAC
self-splicing fitness (ln) (30 °C): -1.95 ± 0.13
self-splicing fitness (ln) (37 °C): -1.4 ± 0.18

GUGCAGCAAUAUUACGCGGC
self-splicing fitness (ln) (30 °C): -1.7 ± 0.14
self-splicing fitness (ln) (37 °C): -2.51 ± 0.23

GUCAAGCAAUAUUACGGGCC
self-splicing fitness (ln) (30 °C): -3.75 ± 0.27
self-splicing fitness (ln) (37 °C): -2.77 ± 0.31

UUCAAGCAAUAUUACGUAGG
self-splicing fitness (ln) (30 °C): -1.53 ± 0.08
self-splicing fitness (ln) (37 °C): -0.995 ± 0.13

GCGAAGCAAUAUUACGUUUU
self-splicing fitness (ln) (30 °C): -3.16 ± 0.12
self-splicing fitness (ln) (37 °C): -2.5 ± 0.17

GAGCAGCAAUAUUACGACUA
self-splicing fitness (ln) (30 °C): -0.925 ± 0.097
self-splicing fitness (ln) (37 °C): 0.275 ± 0.11

CUCAAGCAAUAUUACGGCAC
self-splicing fitness (ln) (30 °C): -2.74 ± 0.2
self-splicing fitness (ln) (37 °C): -1.97 ± 0.28

AUGGAGCAAUAUUACGACUU
self-splicing fitness (ln) (30 °C): -1.73 ± 0.1
self-splicing fitness (ln) (37 °C): -1.08 ± 0.13

UAAAAGCAAUAUUACGGCCG
self-splicing fitness (ln) (30 °C): 0.132 ± 0.12
self-splicing fitness (ln) (37 °C): 0.444 ± 0.17

AGGGAGCAAUAUUACGAGGC
self-splicing fitness (ln) (30 °C): -2.51 ± 0.35
self-splicing fitness (ln) (37 °C): -2.59 ± 0.44

UCAAAGCAAUAUUACGGACG
self-splicing fitness (ln) (30 °C): -1.16 ± 0.079
self-splicing fitness (ln) (37 °C): -0.282 ± 0.1

GUCGAGCAAUAUUACGGGUG
self-splicing fitness (ln) (30 °C): -4.13 ± 0.25
self-splicing fitness (ln) (37 °C): -2.11 ± 0.19

GUUUAGCAAUAUUACGCGGG
self-splicing fitness (ln) (30 °C): -2.42 ± 0.19
self-splicing fitness (ln) (37 °C): -1.89 ± 0.19

CUCGAGCAAUAUUACGAUCU
self-splicing fitness (ln) (30 °C): -3.58 ± 0.25
self-splicing fitness (ln) (37 °C): -3.53 ± 0.26

CGUGAGCAAUAUUACGAGCA
self-splicing fitness (ln) (30 °C): -1.58 ± 0.085
self-splicing fitness (ln) (37 °C): -0.55 ± 0.11

AUGAAGCAAUAUUACGAGUU
self-splicing fitness (ln) (30 °C): -2.19 ± 0.096
self-splicing fitness (ln) (37 °C): -1.15 ± 0.1

ACACAGCAAUAUUACGACUU
self-splicing fitness (ln) (30 °C): -0.131 ± 0.043
self-splicing fitness (ln) (37 °C): 0.0165 ± 0.056

UAUAAGCAAUAUUACGGUGG
self-splicing fitness (ln) (30 °C): -1.67 ± 0.13
self-splicing fitness (ln) (37 °C): -0.746 ± 0.13

GAGCAGCAAUAUUACGACCC
self-splicing fitness (ln) (30 °C): 0.0587 ± 0.081
self-splicing fitness (ln) (37 °C): -0.0685 ± 0.098

UGAGAGCAAUAUUACGGUCA
self-splicing fitness (ln) (30 °C): -0.647 ± 0.1
self-splicing fitness (ln) (37 °C): -0.589 ± 0.13

AAAGAGCAAUAUUACGAUAU
self-splicing fitness (ln) (30 °C): -3.17 ± 0.23
self-splicing fitness (ln) (37 °C): -1.97 ± 0.16

GGGCAGCAAUAUUACGCAAC
self-splicing fitness (ln) (30 °C): -0.812 ± 0.16
self-splicing fitness (ln) (37 °C): -1.56 ± 0.13
